Data as given in patent US20190330296A1 (Janssen / Centocor, published 2019).
Substitutions are numbered along the chain they refer to. Where “and” joins values, the source holds several entries; their conditions need not be identical. Equal values may be shown once.

B1: GLP-1 fusion peptide GF40 (SEQ ID NO:152) (Fc fusion)
chain: HGEGTFTSDVSSYLEEQAAKEFIAWLVKGGGASGGGGSGGGGSCPPCPAPEAAGGPSVFLFPPKPKDTLMISRTPEVTCVVVDVSQEDPEVQFNWYVDGVEVHNAKTKPREEQFNSTYRVVSVLTVLHQDWLNGKEYKCKVSNKGLPSSIEKTISKAKGQPREPQVYTLPPSQEEMTKNQVSLTCLVKGFYPSDIAVEWESNGQPENNYKTTPPVLDSDGSFFLYSRLTVDKSRWQEGNVFSCSVMHEALHNHYTQKSLSLSLGKASGSAPAPAPEEEPCA
B2: GLP-1 fusion peptide coupled cyclic PYY peptide conjugate SEQ ID NO:250 (Fc fusion)
chain: B1 chain
peptide: GISPEAPGEKASPEELNRYYASLRHYLNEVTRQRY
modifications: [cyclo-(G2-E30), S4, K(AcBr)11, psi-(R35,Y36)]-PYY2-36; Br displaced on conjugation to the linker Cys; C-terminal amide; Cys of the second linker peptide thioether-linked to the Lys11 side chain of the cyclic PYY peptide
B3: GLP-1 fusion peptide coupled cyclic PYY peptide conjugate SEQ ID NO:249 (Fc fusion)
chain: B1 chain
peptide: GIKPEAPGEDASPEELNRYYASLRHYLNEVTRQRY
modifications: [cyclo-(G2-E30), S4, K(AcBr)11, N-Me-R35]-PYY2-36; Br displaced on conjugation to the linker Cys; C-terminal amide; Cys of the second linker peptide thioether-linked to the Lys11 side chain of the cyclic PYY peptide
B4: GLP-1 fusion peptide coupled cyclic PYY peptide conjugate SEQ ID NO:248 (Fc fusion)
chain: B1 chain
peptide: B2 peptide with E29C
modifications: [cyclo-(G2-COCH2-C30), K(AcBr)11, N-Me-R35]-PYY2-36; Br displaced on conjugation to the linker Cys; C-terminal amide; Cys of the second linker peptide thioether-linked to the Lys11 side chain of the cyclic PYY peptide
B5: GLP-1 fusion peptide GF41 (SEQ ID NO:153) (Fc fusion)
chain: HGEGTFTSDVSSYLEEQAAKEFIAWLVKGGGASGGGGSGGGGSGGGGSGGGGSCPPCPAPEAAGGPSVFLFPPKPKDTLMISRTPEVTCVVVDVSQEDPEVQFNWYVDGVEVHNAKTKPREEQFNSTYRVVSVLTVLHQDWLNGKEYKCKVSNKGLPSSIEKTISKAKGQPREPQVYTLPPSQEEMTKNQVSLTCLVKGFYPSDIAVEWESNGQPENNYKTTPPVLDSDGSFFLYSRLTVDKSRWQEGNVFSCSVMHEALHNHYTQKSLSLSLGKASGSAPAPAPEEEPCA
B6: GLP-1 fusion peptide GF54 (SEQ ID NO:166) (Fc fusion)
chain: HGEGTFTSDVSSYLEEQAAKEFIAWLVKGGGASAPAPAPAPAPAPAPAPAPAPGSCPPCPAPEAAGGPSVFLFPPKPKDTLMISRTPEVTCVVVDVSQEDPEVQFNWYVDGVEVHNAKTKPREEQFNSTYRVVSVLTVLHQDWLNGKEYKCKVSNKGLPSSIEKTISKAKGQPREPQVYTLPPSQEEMTKNQVSLTCLVKGFYPSDIAVEWESNGQPENNYKTTPPVLDSDGSFFLYSRLTVDKSRWQEGNVFSCSVMHEALHNHYTQKSLSLSLGKASGSAPAPAPEEEPCA
B7: GLP-1 fusion peptide coupled cyclic PYY peptide conjugate SEQ ID NO:239 (Fc fusion)
chain: B6 chain
peptide: B2 peptide with E29C
modifications: [cyclo-(G2-COCH2-C30), K(AcBr)11, N-Me-R35]-PYY2-36; Br displaced on conjugation to the linker Cys; C-terminal amide; Cys of the second linker peptide thioether-linked to the Lys11 side chain of the cyclic PYY peptide
B8: GLP-1 fusion peptide GF27 (SEQ ID NO:139) (Fc fusion)
chain: HGEGTFTSDVSSYLEEQAAKEFIAWLVKGGGAPAPAPAPAPAPAPAPAPAPAPAPAGPPCPPCPAPEAAGGPSVFLFPPKPKDTLMISRTPEVTCVVVDVSQEDPEVQFNWYVDGVEVHNAKTKPREEQFNSTYRVVSVLTVLHQDWLNGKEYKCKVSNKGLPSSIEKTISKAKGQPREPQVYTLPPSQEEMTKNQVSLTCLVKGFYPSDIAVEWESNGQPENNYKTTPPVLDSDGSFFLYSRLTVDKSRWQEGNVFSCSVMHEALHNHYTQKSLSLSLGAPAPAPAPAPAPCPEEP

The binders below were run against human GLP-1 receptor (human, UniProt P43220 24-463) (assay: cell-based or functional assay).
Chain of human GLP-1 receptor (P43220 24-463): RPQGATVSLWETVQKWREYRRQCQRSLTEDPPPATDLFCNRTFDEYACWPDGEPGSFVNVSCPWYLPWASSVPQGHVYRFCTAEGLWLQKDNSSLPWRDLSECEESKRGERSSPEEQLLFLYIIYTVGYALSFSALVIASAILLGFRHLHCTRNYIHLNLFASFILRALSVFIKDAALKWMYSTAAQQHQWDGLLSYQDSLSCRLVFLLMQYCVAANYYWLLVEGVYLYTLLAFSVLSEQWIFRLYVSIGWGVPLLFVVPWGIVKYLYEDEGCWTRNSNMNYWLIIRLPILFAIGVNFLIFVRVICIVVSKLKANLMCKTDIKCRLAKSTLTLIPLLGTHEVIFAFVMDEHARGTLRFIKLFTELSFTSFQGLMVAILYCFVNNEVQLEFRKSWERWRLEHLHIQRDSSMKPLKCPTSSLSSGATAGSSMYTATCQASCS

Binder	Human GLP1R EC50
B1	0.207 nM
B2	0.213 nM
B3	0.148 nM
B4	0.264 nM
B5	0.049 nM
B6	0.035 nM and 0.053 nM
B7	0.042 nM
B8	0.054 nM

The binders below were run against T1, human neuropeptide Y2 receptor (human, UniProt P49146 1-381) (assay: cell-based or functional assay).
T1 sequence (looked up): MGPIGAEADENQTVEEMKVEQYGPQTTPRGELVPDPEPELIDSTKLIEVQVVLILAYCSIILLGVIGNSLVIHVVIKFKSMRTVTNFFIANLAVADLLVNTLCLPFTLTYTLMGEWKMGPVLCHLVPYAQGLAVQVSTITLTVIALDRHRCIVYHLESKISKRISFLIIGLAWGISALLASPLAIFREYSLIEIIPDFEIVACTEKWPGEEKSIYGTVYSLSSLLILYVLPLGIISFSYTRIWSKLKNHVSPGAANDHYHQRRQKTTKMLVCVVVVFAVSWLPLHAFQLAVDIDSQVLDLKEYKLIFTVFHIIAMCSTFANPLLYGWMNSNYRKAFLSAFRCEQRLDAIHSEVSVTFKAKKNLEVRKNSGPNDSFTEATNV

Binder	Human Y2R EC50 [nM]
B2	0.01
B3	0.143
B4	0.018
B7	0.006
